Source: article PMC4748815 (RNA, 2016)
Where two headings read alike, the source gives them in different places.

T1: His6-tagged mouse GYF2 (mouse, UniProt Q6Y7W8 1-1291)
T1 sequence (looked up): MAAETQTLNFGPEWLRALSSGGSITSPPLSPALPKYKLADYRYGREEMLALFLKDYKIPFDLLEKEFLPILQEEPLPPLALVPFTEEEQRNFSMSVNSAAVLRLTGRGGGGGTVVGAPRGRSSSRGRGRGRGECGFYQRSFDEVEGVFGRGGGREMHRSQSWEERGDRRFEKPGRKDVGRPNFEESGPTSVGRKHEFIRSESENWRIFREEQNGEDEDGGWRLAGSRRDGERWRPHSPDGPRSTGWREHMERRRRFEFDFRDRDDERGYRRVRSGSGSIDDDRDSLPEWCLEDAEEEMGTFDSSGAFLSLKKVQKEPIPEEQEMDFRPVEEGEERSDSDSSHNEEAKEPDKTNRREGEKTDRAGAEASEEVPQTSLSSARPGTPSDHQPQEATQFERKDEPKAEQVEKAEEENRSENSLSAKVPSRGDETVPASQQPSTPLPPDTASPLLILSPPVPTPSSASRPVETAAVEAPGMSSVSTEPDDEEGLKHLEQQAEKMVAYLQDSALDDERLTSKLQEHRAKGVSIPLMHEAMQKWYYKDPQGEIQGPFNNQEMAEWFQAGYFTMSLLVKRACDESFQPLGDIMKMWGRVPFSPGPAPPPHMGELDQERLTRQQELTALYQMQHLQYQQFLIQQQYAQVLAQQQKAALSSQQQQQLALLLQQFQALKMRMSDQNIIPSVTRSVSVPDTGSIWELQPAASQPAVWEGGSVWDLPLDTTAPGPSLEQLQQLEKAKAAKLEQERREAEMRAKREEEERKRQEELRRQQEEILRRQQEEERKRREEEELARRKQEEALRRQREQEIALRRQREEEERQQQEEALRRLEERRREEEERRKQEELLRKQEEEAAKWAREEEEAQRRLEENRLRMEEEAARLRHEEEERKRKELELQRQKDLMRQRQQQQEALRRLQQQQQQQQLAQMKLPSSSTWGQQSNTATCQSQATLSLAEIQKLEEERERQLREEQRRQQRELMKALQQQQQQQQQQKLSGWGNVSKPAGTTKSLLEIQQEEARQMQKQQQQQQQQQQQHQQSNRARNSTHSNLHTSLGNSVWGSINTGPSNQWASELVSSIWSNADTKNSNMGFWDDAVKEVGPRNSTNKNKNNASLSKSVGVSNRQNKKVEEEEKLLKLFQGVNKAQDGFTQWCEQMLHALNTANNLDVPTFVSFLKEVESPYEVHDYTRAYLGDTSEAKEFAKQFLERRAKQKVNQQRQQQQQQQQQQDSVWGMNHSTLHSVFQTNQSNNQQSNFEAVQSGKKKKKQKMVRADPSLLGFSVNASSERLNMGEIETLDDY

B1: GST-tagged mouse TTP (natural protein, UniProt P22893 1-319, looked up)
chain: MDLSAIYESLQSMSHDLSSDHGGTESLGGLWNINSDSIPSGVTSRLTGRSTSLVEGRSCGWVPPPPGFAPLAPRPGPELSPSPTSPTATPTTSSRYKTELCRTYSESGRCRYGAKCQFAHGLGELRQANRHPKYKTELCHKFYLQGRCPYGSRCHFIHNPTEDLALPGQPHVLRQSISFSGLPSGRRSSPPPPGFSGPSLSSCSFSPSSSPPPPGDLPLSPSAFSAAPGTPVTRRDPNQACCPSCRRSTTPSTIWGPLGGLARSPSAHSLGSDPDDYASSGSSLGGSDSPVFEAGVFGPPQTPAPPRRLPIFNRISVSE
B2: His6-tagged mouse 4EHP (natural protein, UniProt Q8BMB3 1-245, looked up)
chain: MNNKFDALKDDDSGDHDQNEENSTQKDGEKEKTDRDKSQSSGKRKAVVPGPAEHPLQYNYTFWYSRRTPGRPTSSQSYEQNIKQIGTFASVEQFWKFYSHMVRPGDLTGHSDFHLFKEGIKPMWEDDANKNGGKWIIRLRKGLASRCWENLILAMLGEQFMVGEEICGAVVSVRFQEDIISIWNKTASDQATTARIRDTLRRVLNLPPNTIMEYKTHTDSIKMPGRLGPQRLLFQNLWKPRLNVP

Experiments:
Assay in all cases: pull-down
His6-tagged mouse GYF2 [1] = molecular target: T1, His6-tagged mouse GYF2
GST-tagged mouse TTP = molecular target: B1
His6-tagged mouse GYF2 [2] = molecular target: T1, His6-tagged mouse GYF2; remark: listed apart in the source

| Binder | binding result (His6-tagged mouse GYF2 [1]) | binding result (GST-tagged mouse TTP) | binding result (His6-tagged mouse GYF2 [2]) |
| --- | --- | --- | --- |
| B1 | binds | – | – |
| B2 | – | binds | binds |
